# Test results taken from a protein production outcome set (Wang et al. 2014).
# Experiment: label from the status in PepcDB records
row,Sequence,protein production
1,MSTSSTQHAAPAFTGFSSSAQAMSLVAFTTVATITLLLCVMTGPDRDDLEEFYTGYGSLSPMRNGLAIAGDYISAATVLGTGGVIALTGYDGVVLALSTALSLMLLMFLLAEPLRNAGQFTMGDALARRMPGRAVRVTACVVTIAALLPLMLVQLAGTGDLLSFILGFSNDTLKTGCIIGLGALMISYAAIGGMKGTALIQIMKIVMLLGSGAVVAVLILHRFDWDPGALFSAAAAHSGAGPAFLRSGLEFAGGPNPRLDMITTELTVVLGGGCLPHVTMRMYTANSARQVRRSMSWAVPAVALFVLVITVVGFGATALVGREAIAAADPQGNTAYLLGSRAAFGPDVSSAETLLFTTVTTALFLTLLASVAGMILACANSLAHDVFAARVQEMSPRREMTLARLSALAVGVPTILLATLVHHRSLQPLVTLSFCIGASAIAPALVYGLFWRRYTRTGLLCTLIGGTLSVVLLLPGTNLVTGSPAAAFPDADFNWFPFTTTGLATIPLGFLLGWLGTLLSGRQKAEAQRRQYEAVEGWILAGAVRRSG,failed
2,MLPLTLIAILSLGIVEGLDPYKGLLFSYYFYSFRKVKESYVVPIVSTITYYIVGILIVEWLNISDNILTRGIMFSLLLVHVLIKLVIGKVLHYPSNMRPKILNVIQWSAINSIIQMNFIILLTLSILSKPSLILLPITVIIVRETTYCLSVKNNKILLKLTEYNFDYFYLITVLLLGIVIILPLL,failed
3,MKFQPLGERVLVERLEEENKTSSGIIIPDNAKEKPLMGVVKAVSHKISEGCKCVKEGDVIAFGKYKGAEIVLDGTEYMVLELEDILGIVGSGSCCHTGNHDHKHAKEHEACCHDHKKH,failed
4,MVDLGKQRDHNYHHMQIITTPTSVDCSREFRHRRTLRSLIECMIPYCCTYQQQPYQNDTLSVSSTSSSSSSSDHSSSSQSSSTVSGTFFGHRRGRVSFCLQDAAVGSSPLLLLELAVPTAALAKEMDEEGVLRIALECDRRRSSNSRSSSIFDVPVWSMFCNGRKMGFAVRRKVTENDAVFLRMMQSVSVGAGVVPSEEEDQMLYLRARFERVTGSSDSESFHMMNPGGSYGQELSIFLLRS,failed
5,MKLQGSNILGQEQIDLLTTRGLNFVWFPKQLETIYRFQYQNGAAYEFRYRAPIILILYLFLSFGIYQVLPTEQVLSWLSYYSWVGIIVLIAWILSFIKKLNQWFDYYVGIGSSAAVAITFILINVLENGQDNVLFHAAMMYAIVIIYGAVGMRFYTAIIAGWVGGLIGILVSTYLNGDIDWTFLNRTYTFSSFLGMTLAYATDRQHRENYLQNCMIELNRIELMQQAQQLSLLSQQDALTGLANRRYLDETLDNEWRRALRHETPLTIMMVDIDFFKPYNDSLGHLKGDQCLKDIATAISSIAARSGDLVARYGGEEFLLLFPMTNAQQAKIQAERLMNAIKKIAIVHPCSSVSPYVTISVGVATTIPRLNDSISAFVSRADHALYQAKTNGRNQYQIALNEEQIVDLT,failed
6,PREPVVNDEMCDVCEVWTAESLFPCRVCTRVFHDGCLRRMGYIQGDSAAEVTEMAHTETGWSCHYCDNINLLLTEE,not failed
7,MEDIVHKYKVSVIICFFNSAETLDAMIKDAVNQTLKDKEIILIDDGSYDGSLEIAEKYANKYSFIKIFSQKNMGLSASRDKGLSEAQGEYVIYWDGDDSVESTMLEVLYNRAKADNSDIVCSQFYIYFLAINVKRKSLLPFPNYPLTGKEAFKNLLFTVYATFGRKNFVVGTLWDKLIRRELILKNNIRQQNVVFEDIVFVMQIFLKASKVSFVNNYFYTNFQRMGSMSSSISVLHKSKLSLNTMETLLKREGIFNECQNLYKKFFLQFYYFISFKQIYIISWNISDKLVYRAYKEKLISVLDEIKGLSEFQDCYEYAKSFGFNEIQILPRIMLKIWNFSSRLYVNFSIFIYKFFIKN,failed
8,MAKKVKVITDPEVIKVMLEDTRRKILKLLRNKEMTISQLSEILGKTPQTIYHHIEKLKEAGLVEVKRTEMKGNLVEKYYGRTADVFYINLYLGDEELRYIARSRLKTKIDIFKRLGYQFEENELLNIMDRMSQKEFDATVRISKYIEEKEDALKDFSNEDIIHAIEWLSTAELARDEEYLELLKRLGSILKR,not failed
9,RDKYYLITHGSQDPYWTSLFQGAKKAAEELKVDLQILAPPGANDVPKQVQFIESALATYPSGIATTIPSDTAFSKSLQRANKLNIPVIAVDTRPKDKTKNPYLVFLGSDNLLAGKKLGEKALELTPSAKRALVLNPQPGHIGLEKRAYGIKTILQDKGIFFEELDVGTDPNQVQSRVKSYFKIHPETNIIFCLTSQALDPLGQMLLHPDRYDFNYQPQVYSFDKTPNTVSLIHKKLVNYVMDQQPFLMGYLSITQLVLMNRYQLNPVNINTAM,not failed
10,MSLVNLTINGKHVSAPSGTSILDAAKLINIKIHNLCHLHMNEIDKLDTCASCRVCMVETERGLVPACGTVIKEGMKVQTNSAKALNARRTIVELLLSDHPQDCFVCEKNGDCELQTIAADLGVRKIRYQGSKSFAGKDTSTKSLVKDHSKCILCRRCETVCNDIQTVGALSGVNRGFNTLVSTFFNSDMVETECTFCGQCISVCPTGALTEVDNVPKLWDVLNKKEKTIVVQVAPAVRVAIGEEFGLEPGSISTGKMVAALKALGFEHVFDTNFGADFTIMEEATEFIERIQKGENLPILTSCCPAWVNFLEHNYPDKLNLASSCKSPQGMFGSIAKNYYAPKILGINPEELYVVSVMPCVAKKYEASREELSESGILDVDLSITTRELAKMIKEAAIDLPNLQDQDFDNPLGKSTGAASIFGASGGVLEAALRTSYEKITNKTLDNVNFTNVRGLKGIREASIDVDGTTVNVCIVNTLKNARKIMDKVRSGECKYHIIEVMACPGGCVGGAGQPYHHGNTEIVDRRANALYEIDRNKAIRKSHENPDLQAIYKDFFGEPNSDVAHKYLHTHYFDKSCVYGECPQECACEEAK,failed
11,MGHHHHHHSHMANGTAGTKVALRKTKQAAEKISADKISKEALLECADLLSSALTEPVPNSQLVDTGHQLLDYCSGYVDCIPQTRNKFAFREAVSKLELSLQELQVSSAAAGVPGTNPVLNNLLSCVQEISDVVQR,failed
12,MPKGLMLTDLAIAGLLLIVAKVIRVHTPLLQRMYIPSAVLAGLFGLVFGPAMLDLLPWTDTFTANASLLTAALFSALGLATDVPSPKVVAQRAGSLWAFNQIASVSQWLFAAMFGLLLTTFFWPEINPGFGVTMSAGFMGGHGSASVVGDIFTGLGWEDGFTLGLTFATVGIFISISIGMLMLQFALKMGWIRSFTTFDSMDEHERKGLVKPTEQEPVMKDTMSSLSVDSFAIHAALVVVVTAFSYVAANYLSSFHDKVQIPTFVTGFLGGMLVRIVAKQTKASRYLCDGAFKHAAGISTDYLIIFGISAIKITVLAQYLAPMIVLAIGGIAFTLWLIFWVAPRIMGDDWFEKGIFSWGWLTGTVAMGIALLRIVDPKMRSKVLDDYAIAYVPGSITDIFIISLMPIAMYNGMEWQALGVGLAYIAVVLFIWRFVFKRSGQTVTDAS,failed
13,IIAKKTNDIQQDIILHSEFANRHGLIAGATGTGKTVTLKVMAESFSRIGVPVFLADAKGDVSSIAKAGSDNPKFDARIKSLGIESIPFAASPTIFWDLFGEQGHPIRTTISEIGPLLLAQMLNLNDTQEGVLSALFRIADDQGLLLIDFKDLKAMLSYVSENAADLKAEYGNLSPASIGAIQRNLLALGDQGGEQFFGEPSLNILDFIQTDSNGHGYINVLAADKLMNTPKLYATFLLWMLSELFEQLPEVGDLDKPKLVFFFDEAHLLFDNASPALQQKIEQVVRLIRSKGVGIYFITQNPLDLPESVLGQLGNRVQHALRAFTPKDQKAVKTAADTFRANPEFKVDQAITELAVGEALISCLDEQGTPQIVERGWVMPPYSSFSPLSPQERQAFMAQSIVAGVYENAVDRDSAYEMLQRKVNESTAQQQAQAEAKQQEANAKQQAKEQERLAREQQKAEEKAQRDREKLTQDVIGTFAKSAARTLGGPTGQKLVRGLLGSLFGKR,failed
14,STERRRDELSEEINNLREKVMKQSEENNNLQSQVQKLTEENTTLREQVEPTPEDEDDDIELRGAAAAAAPPPPIEEECPEDLPEKFDGNPDMLAPFMAQCQIFMEKSTRDFSVDRVRVCFVTSMMTGRAARWASAKLERSHYLMHNYPAFMMEMKHVFEDPQRREVAKRKIRRLRQGMGSVIDYSNAFQMIAQDLDWNEPALIDQYHEGLSDHIQEELSHLEVAKSLSALIGQCIHIERRLARAAAARKPRSPPRALVLPHIASHHQVDPTEPVGGARMRLTQEEKERRRKLNLCLYCGTGGHYADNCPAKASKSSPAGNSPAPL,not failed
15,MKQKLVVMIAAVLILALTVSIASAEDQNDQTSLRSEQNDAFVAGDNLIDSSSVIKYGDPIGSYKNVTAYSNKGNGKYQCVEYVKRFYKEAMNVEPDWDGTGNAITYYTNAEAKGLVSYSNNGSVAPKPDDIIIFSPTDNGYGHVAIITEVGDKYIKIIEQNWNQENAFASLSLEKNGSKYYISPRGASKRPTEGWCRTPILNIISPTKKSFSLVGNYNNPNLLTVDAEVKSENVPITGLNKDNFTIEIGSKKVNDVTVSDVGEGKYKLSFNPPKQDSNGNYDLNVYVKYKKVTLSDSELNAVRYGEDNANANANVMLVIDRSGSMSGSPISSAKNSANLFIDYMEAEDMAGVVSFSSSARYDYHLATLTPEVKNSIKQKINSIYASGVTAIGSGMRYGLNDLLNYGDPNNPWAIVLLSDGYQNSGENPNNVIPSIKASNIQVYTVGLGPAVDQKLLGNIADQTGGKYYYSPTDSQLQEIYNDIVGKIIGWKTVFKRNVKMFIHERVPIAVPIDSAIDKVSFGIGWPGSNVDLVLYKPDGTLVDPSFADSDPTIEYLSGPTYKIYKVTDPESGMWNMELNATDMPAGGEDVYVTVLAESTLSMSLSTNKGQYNQGEVVKIIADLSDAGTQITGADVKVNVTLPDSSVEYLTLYDDGGHGDNGSQDGVYANYLVDTSLMGDYKVDVTSTGSLSDGSQFKRIEDTSFEIIQGISSISSIANLQSTNDITWINWTWTNPTGPNFSHTEIYLDGVFQANTSAEFFNATGLEPETEYTLSTHTVDISGNVNETWVNSTATTSAELVSDVKKPVIDSVNLFPANTTAGATINLSINATDDTAVTEVIAGDIQLIKTDDIWQGSITAPSSIGSYSLLIKAKDAAGNVAEASVPYRVVQLSGGANIAVSPRSSSIVAGNSVTLNIKVKNTQNIDDIFKVNITVSELPAANQANIDWFSWTEQSVKLRAGEEILLPLEVEVPDGTALGLKLFRANVNSETSVVTGFDTGYLKVV,failed
16,MSLTLLKGRRKVDTIKVGILGYGLSGSVFHGPLLDVLDEYQISKIMTSRTEEVKRDFPDAEVVHELEEITNDPAIELVIVTTPSGLHYEHTMACIQAGKHVVMEKPMTATAEEGETLKRAADEKGVLLSVYHNRRWDNDFLTIKKLISEGSLEDINTYQVSYNRYRPEVQARWREKEGTATGTLYDLGSHIIDQTLHLFGMPKAVTANVMAQRENAETVDYFHLTLDYGKLQAILYGGSIVPANGPRYQIHGKDSSFIKYGIDGQEDALRAGRKPEDDSWGADVPEFYGKLTTIRGSDKKTETIPSVNGSYLTYYRKIAESIREGAALPVTAEEGINVIRIIEAAMESSKEKRTIMLEHEGHHHHHH,not failed
17,MTEIKYKVITKDAFALPYTIIKAKNQPTKGVIVYIHGGGLMFGKANDLSPQYIDILTEHYDLIQLSYRLLPEVSLDCIIEDVYASFDAIQSQYSNCPIFTFGRSSGAYLSLLIARDRDIDGVIDFYGYSRINTEPFKTTNSYYAKIAQSINETMIAQLTSPTPVVQDQIAQRFLIYVYARGTGKWINMINIADYTDSKYNIAPDELKTLPPVFIAHCNGDYDVPVEESEHIMNHVPHSTFERVNKNEHDFDRRPNDEAITIYRKVVDFLNAITMV,not failed
18,MKKRVQNKRFARTICDGNNPSQIATDLRDICEGEKTRRFSVANFARDNSLAILREICEELARTKKFLAKSLQIARDLQVQILFCGNFCDETYKDRDFAGWLKLYVTNGCENELLLLWLYEIVQEPRSKITTAKSFVVDVNANKTYAKFKPFILASQAFYLTRV,not failed
